Substrate in the series “purified protein”: O=C(O)/C=C/c1ccccc1
The series is described as follows: purified protein. As to conditions: 1 mM CoA, 1 mM ATP, 1 mM MgCl2, 50 mM Tris pH 7.5, 55°C, 0.5 μM enzyme, 50-7000 μM substrate.

Substrate in series [1]: O=C(O)/C=C/c1ccc(O)cc1
The series is described as follows: coupled pyrophosphate assay (EnzChek). The following applies: 1 mM CoA, 1 mM ATP, 1 mM MgCl2, 50 mM Tris pH 7.5, 55°C, 0.5 μM enzyme, 10-750 μM substrate. It counts as biochemical, Chitinophaga pinensis.

This passage reports Km results from article PMC3992019, “Initiation of the flexirubin biosynthesis in Chitinophaga pinensis” (Microbial Biotechnology, 2014).

B1: FlxY (Chitinophaga pinensis DSM 2588) (protein)
chain: MYIPDIELQSTAAIRKYQETEVLRLLGYLRQFSPFYREWFAQHGIQPSTVKSLNDLWLIPPVTKEHLQQQNWDFLCVDKSRIAEYTTTSGTLGNPVIIALTQKDQERLSYNEYISFCCAGGTENDIYQLMLTLDRQFMAGMAYYNGIRKLGAGVLRVGPGVPSLQWENISRIQPTTIVAVPSFIVKLIAFAKEHNIDINASSVKSAVCIGENIRNVDFSLNVLGKKITEQWDIKLYSTYASTEMQTAFTECNAGQGGHHHPELLYIELLDDNNQPVGPNQDGEVTITTLGVEGMPLLRYKTGDICRYFQEPCSCGRHTMRLSPVIGRRKQMIKYKGTTLYPPALFDLLNDMEEVKEFVVEVFSNEIGTDEILLHLWPVAETEDIDRKIRSYLQAKLRVIPQVRYCSQADVMKMQFPEGSRKPIKFIDRR
notes: His6-tagged full-length (pCOLADuet-1, BamHI/HindIII), expressed in E. coli BL21 (DE3), HisTrap purified, tag kept; expected size 49 kDa
A word on the Km: it is the concentration of substrate that gives half-maximal velocity. Regarding B1, the Michaelis-Menten constant (Km) in the series “purified protein” amounted to 868 µM; in series [1], 17 µM.
